Assay results as given in PMC3124622.

Tested on: Nc1nc2nc[nH]c2c(=O)[nH]1
Assay: purified protein, by the assay type
Conditions: guanine as substrate, 20 μM tRNA, 37 °C, pH 7.3

Substance	Km (other: V217G)	kcat (other: V217G)	Km (other: C145V/T146V)	kcat (other: C145V/T146V)
E. coli TGT V217G (Escherichia coli K-12; V217G)	1.00 (0.10) μM	0.000259 s⁻¹	–	–
E. coli TGT C145V/T146V (Escherichia coli K-12; C145V/T146V)	–	–	0.87 (0.18) μM	0.00053 s⁻¹
